Results reported in US20200181597A1, “Composition and Application of Arginine-depleting Agents for Cancer, Obesity, Metabolic Disorders, and Related Complications and Comorbidities” (THE HONG KONG POLYTECHNIC UNIVERSITY, priority 2018, published 2020).

What was measured:
MDA-MB-231 cells = assay: Trans-well migration and invasion assay; format: cell-based, human; conditions: 1 U/mL, 24 h
Method: (§1) Breast cancer cell lines (human MDA-MB-231 cells and mouse 4T1 cells) were used in these studies. Both migration assay and invasion assay were performed in 24 wells Costar (Corning) Trans-well system (polycarbonate membrane inserts, pore size 8.0 μm). Before the assay, the cells were cultivated in appropriate serum free medium for at least 24 h. One day before seeding cells to the upper chambers, 100 μL diluted matrigel was added to the upper chambers of the inserts for invasion assay. Serum free medium (100 μL) was added to the upper chamber used for migration assay. The 24 well plates were incubated in the incubator for overnight. The next day, cells were trypsinized and counted. In the studies, 3×10^4 cells of 4T1 or 5×10^4 cells of MDA-MB-231, with 200 μL appropriate serum free medium, were seeded into the upper chambers. Appropriate complete medium (750 μL) was added to the lower chambers. For the drug treatment group, 1 U/mL His-rhArg (SEQ ID NO: 101) was added to both chambers. The 24 well plates were incubated at 37° C. humidified atmosphere with 5% CO2 for 20 h (4T1 cells) or 24 h (MDA-MB-231 cells).
(§2) After incubation, the medium in the upper chambers was removed. The trans-well inserts were washed with 1×PBS twice. Cold 100% methanol was added to both upper chambers and lower chambers for 10 min to fix the cells. The inserts were washed with 1×PBS for two times. […]

4T1 cells = assay: Trans-well migration and invasion assay; format: cell-based, mouse; conditions: 1 U/mL, 20 h
Method: as §1, §2

MCF-7 cancer cells = assay: cells; format: cell-based, human; conditions: MCF-7, single agent
Method: (§3) Breast cancer cell lines (e.g. human MCF-7 and MDA-MB-231 cells) were used in these studies. Cancer cells (5×10^3 cells) were seeded in 96-well plates (TPP) with […] complete medium. The plates were incubated in incubator overnight and the cells were allowed to adhere to the plates. […] Each dosage was triplicated in 3 wells to obtain the average change of cell viability. […] The plates were put back into the incubator and further incubated for 4 h. To dissolve the insoluble compound, formazan, formed by MTT, 100 μl of 10% SDS in 0.01 M HCl was added. The plates were incubated at 37° C. overnight. The color change was measured by spectrophotometer at 570 nm. Control set up (without any drug) was used as base to calculate percentage of cell viability which was used to plot the dose response curve by the software Prism 6.0 (GraphPad) to find the IC50 values. […] CalcuSyn software (Biosoft) was used for calculating the CI values.

[1] = test system: MDA-MB-231 breast cancer cells; assay: cells; format: cell-based, human; conditions: MDA-MB-231, single agent
Method: as §3

[2] = Enzyme kinetics after metal ion substitution; format: biochemical
Method: Wild type arginase typically includes a Mn^2+ metal ion (D′Antonio & Christianson, 2011, Biochemistry, 50:8018-27). […] Purified N-ABD094-rhArg (SEQ ID NO: 50) in 20 mM Tris-HCl buffer (pH 7.4) was mixed with 20 mM of different divalent metal ions (Mn^2+, Ni^2+ or Co^2+), and was incubated at 52-55° C. for 15-60 min and then buffer exchanged with PBS buffer (pH 7.4).
Samples were subjected to enzyme activity and enzyme kinetic studies to determine the specific activity and catalytic efficiency (kcat/Km). Samples were applied to inductively coupled plasma atomic emission spectroscopy (ICP-OES, Agilent 700 Series ICP optical emission spectrometer) for quantitative analysis of metal content.

[3] = DIO mice treated with N-ABD094-rhArg-Co^2+; format: in vivo, C57BL/6J male mice; conditions: 25-100U i.p., within 5 weeks, from 55 g, HFD continued
From the text: Production of N-ABD094-rhArg-Co^2+ [SEQ ID NO: 50 (cobalt substituted)] is described in Example 32. C57BL/6J male mice with pre-existing diet-induced obesity (DIO) received i.p. injection of 25-100U N-ABD094-rhArg-Co^2+[SEQ ID NO: 50 (cobalt substituted)] for 5 weeks, while continuously being fed a HFD.

Row | IC50 (MCF-7 cancer cells) [U/mL] | IC50 [1] [U/mL] | Molecule | number of cancer cells that can migrate and invade via the transwell inserts (MDA-MB-231 cells) | number of cancer cells that can migrate and invade via the transwell inserts (4T1 cells) | Km [2] [µM] | kcat [2] [s⁻¹] | bodyweight after treatment [3] [g]
1 | 0.7869 | 0.9522 | His-rhArg: recombinant human arginase with His tag, SEQ ID NO: 101 (protein, His tag; His-rhArg, Synthesized in Lab) MHHHHHHMSAKSRTIGIIGAPFSKGQPRGGVEEGPTVLRKAGLLEKLKEQECDVKDYGDLPFADIPNDSPFQIVKNPRSVGKASEQLAGKVAEVKKNGRISLVLGGDHSLAIGSISGHARVHPDLGVIWVDAHTDINTPLTTTSGNLHGQPVSFLLKELKGKIPDVPGFSWVTPCISAKDIVYIGLRDVDPGEHYILKTLGIKYFSMTEVDRLGIGKVMEETLSYLLGRKKRPIHLSFDVDGLDPSFTPATGTPVVGGLTYREGLYITEEIYKTGLLSGLDIMEVNPSLGKTPEEVTRTVNTAVAITLACFGLAREGNHKPIDYLNPPK | decreased | decreased |  |  | 
2 |  |  | N-ABD094-rhArg-Co^2+: cobalt-substituted N-ABD094-rhArg enzyme (protein, cobalt substituted; N-ABD094-rhArg, Synthesized in the Lab, cobalt-substituted N-ABD094-rhArg enzyme) MHHHHHHDEAVDANSLAEAKEAANAELDSYGVSDFYKRLIDKAKTVEGVEALKDAILAALPSGSNNNNNNGSGGMSAKSRTIGIIGAPFSKGQPRGGVEEGPTVLRKAGLLEKLKEQECDVKDYGDLPFADIPNDSPFQIVKNPRSVGKASEQLAGKVAEVKKNGRISLVLGGDHSLAIGSISGHARVHPDLGVIWVDAHTDINTPLTTTSGNLHGQPVSFLLKELKGKIPDVPGFSWVTPCISAKDIVYIGLRDVDPGEHYILKTLGIKYFSMTEVDRLGIGKVMEETLSYLLGRKKRPIHLSFDVDGLDPSFTPATGTPVVGGLTYREGLYITEEIYKTGLLSGLDIMEVNPSLGKTPEEVTRTVNTAVAITLACFGLAREGNHKPIDYLNPPK |  |  | 270 to 350 | 250 to 316 | 30
